Results taken from publication PMC6327262.

Substrate: O=[N+]([O-])c1ccc(O[C@@H]2O[C@H](CO)[C@@H](O)[C@H](O)[C@H]2O)cc1
Assay: purified protein
Details: 25 mM sodium phosphate pH 6.0, 45 °C, 1 μg/mL enzyme, 0.1-5.0 mM substrate, no inhibitor

B1: rBGLa (Limosilactobacillus antri DSM 16041) (protein)
chain: MVKIDLQFVQGLTLEERAALVSGKDFWFTAKVPGVDRMMMSDGPSGLRKQDIDVAPTDVNNSVDAVCFPSSALTASSFDDQLLFKLGHHLGVAASAEKLGVLLGPGVNIKRSPLAGRNFEYFSEDPLLAGRMGTAYVKGVQEEGVGVSVKHFAANNRENQRFTSSSNIDERALREIYLAQFERIVKEAQPATLMCSYNRLNGTLNSQNQRLLTEILRNEWGFQGLVMSDWGAVADHVAAIKAGLDLEMPGKDQASVDEIVQAVKEGRLQESTLNRSALRVLQMVEKWGKDVSRTESYDKEEQHEFARQVADDSIVLLKNDNQELPLHTGGSLAVIGELAAKPRFEGGGSSHVNAHHLVTPLAAAPTNAKYAVGYSLTETAPNEELTKEAVQLAKQSDQVVFFAGFPERMETEGFDKDSIALPANQNALLREVLKVNPHVTVVLQNGSVVEMPWADGVPAIVETYLAGEAVGEATWDILTGKVNPSGKLSESFPLRLQDNPTYGTFARDHDEEDYHEGIFVGYRYYDLHEMPVRFPFGHGLSYTDFTYSDLTVSEEDNDVKVRFTVTNSGQVAGKEVAQVYVANHVSRVEMPVKELRDFTKLALAPGESKTVTLTLPRRAFSYYNVAQEQWEADNGEYEIMVGSSSRDIRLRTTFTLTIGVNPVGEITGDTYIGDIWNDQDPKVQAALKSSGLYEVLQPMMADKDWVAISANMPLRSLAATGIQEEVRDAFLRALK
  Km: 1840 ± 70 µM
  kcat: 407 s⁻¹
  kcat/Km: 221000 M⁻¹ s⁻¹
